Source: paper PMC3893232
Like-named read-outs stand apart in the source and are kept apart here.

Key:
SEC [1] = assay: SEC
SEC [2] = assay: SEC; remark: listed apart in the source

| Substance | % monomer (SEC [1]) | % monomer (SEC [2]) |
| --- | --- | --- |
| IgG1-Y407A | 5% | 1% |
| IgG1-Y407E (natural mixture of HL and (HL)2) | 95% | 90% |
